Biological target: Plk1 (UniProt P53350)
Assay: Myc-PP6R2 IP, Plk1 Western blot
Settings: reference: wild type; sites S771

## PP6R2 (SAPS2) (from UniProt O75170) S771A (PBD2 mutant)
  binding against the reference: lost

Reference: paper PMC6002859
